Reference: patent publication EP1452542A2 (Novartis AG, dated 2004)

B1: reshaped human C21 antibody C21-H3/L1 (antibody, V domains shown)
VH: QVQLVQSGAEVKKPGASVKVSCKASGYTFSMYWLEWVRQAPGHGLEWVGEISPGTFTTNYNEKFKARATFTADTSTNTAYMELSSLRSEDTAVYYCARFSHFSGSNYDYFDYWGQGTLVTVSS
VL: DILLTQSPGTLSLSPGERATLSCRASQSIGTNIHWYQQKPGQAPRLLIKYASESISGIPSRFSGSGSGTDFTLTISRLEPEDFAMYYCQQSDSWPTTFGQGTKVEIK
B2: reshaped human C21 antibody C21-H1/L1 (antibody, V domains shown)
VH: QVQLVQSGAEVKKPGASVKVSCKASGYTFSMYWLEWVKQRPGHGLEWVGEISPGTFTTNYNEKFKAKATFTADTSTNTAYMELSSLTSEDTAVYYCARFSHFSGSNYDYFDYWGQGTLVTVSS
VL: DILLTQSPGTLSLSPGERATLSCRASQSIGTNIHWYQQKPGQAPRLLIKYASESISGIPSRFSGSGSGTDFTLTISRLEPEDFAMYYCQQSDSWPTTFGQGTKVEIK
B3: reshaped human C21 antibody C21-H1/L2 (antibody, V domains shown)
VH: QVQLVQSGAEVKKPGASVKVSCKASGYTFSMYWLEWVKQRPGHGLEWVGEISPGTFTTNYNEKFKAKATFTADTSTNTAYMELSSLTSEDTAVYYCARFSHFSGSNYDYFDYWGQGTLVTVSS
VL: DILLTQSPGTLSLSPGERATLSCRASQSIGTNIHWYQQKPGQAPRLLIKYASESISGIPDRFSGSGSGTDFTLTISRLEPEDFAMYYCQQSDSWPTTFGQGTKVEIK
notes: C21-L2 is C21-L1 with aspartic acid instead of serine at position 60
B4: reshaped human C21 antibody C21-H1/L3 (antibody, V domains shown)
VH: QVQLVQSGAEVKKPGASVKVSCKASGYTFSMYWLEWVKQRPGHGLEWVGEISPGTFTTNYNEKFKAKATFTADTSTNTAYMELSSLTSEDTAVYYCARFSHFSGSNYDYFDYWGQGTLVTVSS
VL: EIVLTQSPGTLSLSPGERATLSCRASQSIGTNIHWYQQKPGQAPRLLIKYASESISGIPSRFSGSGSGTDFTLTISRLEPEDFAMYYCQQSDSWPTTFGQGTKVEIK
notes: C21-L3 is C21-L1 with Glu instead of Asp at position 1 and Val instead of Leu at position 3
B5: reshaped human C21 antibody C21-H3/L2 (antibody, V domains shown)
VH: QVQLVQSGAEVKKPGASVKVSCKASGYTFSMYWLEWVRQAPGHGLEWVGEISPGTFTTNYNEKFKARATFTADTSTNTAYMELSSLRSEDTAVYYCARFSHFSGSNYDYFDYWGQGTLVTVSS
VL: DILLTQSPGTLSLSPGERATLSCRASQSIGTNIHWYQQKPGQAPRLLIKYASESISGIPDRFSGSGSGTDFTLTISRLEPEDFAMYYCQQSDSWPTTFGQGTKVEIK
B6: reshaped human C21 antibody C21-H3/L3 (antibody, V domains shown)
VH: QVQLVQSGAEVKKPGASVKVSCKASGYTFSMYWLEWVRQAPGHGLEWVGEISPGTFTTNYNEKFKARATFTADTSTNTAYMELSSLRSEDTAVYYCARFSHFSGSNYDYFDYWGQGTLVTVSS
VL: EIVLTQSPGTLSLSPGERATLSCRASQSIGTNIHWYQQKPGQAPRLLIKYASESISGIPSRFSGSGSGTDFTLTISRLEPEDFAMYYCQQSDSWPTTFGQGTKVEIK
B7: reshaped human C21 antibody C21-Hay3/L1 (antibody, V domains shown)
VH: QVQLVQSGAEVKKPGASVKVSCKASGYTFSMYWLEWVRQAPGQRLEWMGEISPGTFTTNYNEKFKARATFTADTSASTAYMELSSLRSEDTAVYYCARFSHFSGSNYDYFDYWGQGTLVTVSS
VL: DILLTQSPGTLSLSPGERATLSCRASQSIGTNIHWYQQKPGQAPRLLIKYASESISGIPSRFSGSGSGTDFTLTISRLEPEDFAMYYCQQSDSWPTTFGQGTKVEIK
B8: reshaped human C21 antibody C21-Hay3/L2 (antibody, V domains shown)
VH: QVQLVQSGAEVKKPGASVKVSCKASGYTFSMYWLEWVRQAPGQRLEWMGEISPGTFTTNYNEKFKARATFTADTSASTAYMELSSLRSEDTAVYYCARFSHFSGSNYDYFDYWGQGTLVTVSS
VL: DILLTQSPGTLSLSPGERATLSCRASQSIGTNIHWYQQKPGQAPRLLIKYASESISGIPDRFSGSGSGTDFTLTISRLEPEDFAMYYCQQSDSWPTTFGQGTKVEIK
B9: reshaped human C21 antibody C21-Hay3/L3 (antibody, V domains shown)
VH: QVQLVQSGAEVKKPGASVKVSCKASGYTFSMYWLEWVRQAPGQRLEWMGEISPGTFTTNYNEKFKARATFTADTSASTAYMELSSLRSEDTAVYYCARFSHFSGSNYDYFDYWGQGTLVTVSS
VL: EIVLTQSPGTLSLSPGERATLSCRASQSIGTNIHWYQQKPGQAPRLLIKYASESISGIPSRFSGSGSGTDFTLTISRLEPEDFAMYYCQQSDSWPTTFGQGTKVEIK

Legend:
[1] = biological target: T1, human IgE; monoclonal antibody SE44 (human, UniProt P01854-1 1-428); assay: BIAcore SPR, Kaff from kass and kdiss
T1 construct: domain: human e constant region; also called IgE (SE44); human monoclonal IgE (SE44)

[2] = biological target: T1, human IgE; monoclonal antibody SE44; assay: BIAcore SPR, antibody captured via anti-human IgG, IgE SE44 3.125-25 nM in flow, 25°C
[3] = biological target: T1, human IgE; monoclonal antibody SE44; assay: BIAcore SPR, antibody captured via anti-human IgG, IgE SE44 25 nM, dissociation in HBS, 25°C

| Binder | Ka [1] [M⁻¹] | kon [2] [M⁻¹ s⁻¹] | koff [3] [s⁻¹] |
| --- | --- | --- | --- |
| B1 | 1.32e+10 | 250000 | 1.9e-05 |
| B2 | 8.7e+09 | 260000 | 3e-05 |
| B3 | 4.9e+09 | 280000 | 5.7e-05 |
| B4 | 4.7e+09 | 290000 | 6.2e-05 |
| B5 | 5.7e+09 | 250000 | 4.4e-05 |
| B6 | 7.4e+09 | 260000 | 3.5e-05 |
| B7 | 6.1e+09 | 250000 | 4.1e-05 |
| B8 | 8.1e+09 | 250000 | 3.1e-05 |
| B9 | 1.6e+09 | 260000 | 0.000159 |
